The text below walks through data of patent US20100285583A1, “COMPOUNDS AND METHODS FOR INHIBITING PLATELET AGGREGATION” (priority 2009, published 2010).

In test [1] the test system is platelet and leukocyte mixtures. Kind of test: Platelet-leukocyte aggregation under flow. In kind it is cell-based, human. The conditions noted are these: 10 μM, with sulfatide liposomes. On the procedure:
(§1) The microfluidic device consisted in a simple straight channel 500 μm wide, 50 μm deep and 3.62 cm long. A silicon master stamp was fabricated on a <100> silicon substrate following a previously described process (Ross et al. Ann. Rev. Med. 1987, 38:71-79). Flow was driven using a micro-syringe pump (Cole-Parmer) with a 1 mL syringe connected to the channel inlet by 30 cm of Cole-Parmer gauge 20 Teflon tubing. After priming the system with the sample, the pump was set to 0.05 mL/h (equivalent to an average velocity of 0.55 mm/sec in the channel), which is in the range of in vivo blood velocity (0.1-1.5 mm/sec (9)) and causes a shear rate of 70 sec−1. This flow rate was maintained for 1 min prior to the experiments. Platelets flowing through the channel were monitored using an inverted light microscope (DMI 6000B, Leica Microsystems) equipped with a digital camera (DFC420, Leica Microsystems).
To quantify the ability of N-PTB to block platelet-leukocyte binding under physiological flow conditions, platelet and leukocyte mixtures were flown through a microfluidics device, as described above, and aggregation was measured using light microscopy. Untreated cell suspensions ([…]) were flown for 10 minutes and the channel was scanned for leukocyte adhesion and inclusion into platelet aggregates and representative pictures were taken (FIG. 18A-B).

Test [2] can be described thus: Competition SPR, PtdIns(4,5)P2 pre-incubated protein on sulfatide liposomes. The conditions noted are these: 5 μM protein pre-incubated with increasing PtdIns(4,5)P2; read-out: IC50 of PtdIns(4,5)P2 competition for sulfatide binding. On the procedure: (§2) Surface plasmon resonance (SPR) binding experiments were performed on a BIAcore X instrument using L1 sensorchips coated with ˜0.5 mM of mixed sulfatides or PtdIns(4,5)P2 size calibrated liposomes. N-PTB domain or its mutants binding experiments were performed in a degassed solution containing 10 mM Tris-HCI (pH 7.4) and 150 mM NaCl. This buffer was used during equilibration, association and dissociation phases. Proteins were added to this buffer at the indicated concentrations. Regeneration of the phospholipid bilayer after dissociation phase was carried out using 20 mM NaOH. For competition SPR, increasing molar amounts of dioctanoyl PtdIns(4,5)P2 were preincubated with 5 μM N-PTB for 20 min at room temperature. The entire reaction was then exposed to an L1 sensorchip containing immobilized sulfatide liposomes (˜0.5 mM).

Test [3] can be described thus: Surface plasmon resonance, immobilized sulfatide liposomes. The conditions noted are these: SPR, estimated; read-out: dissociation constant (KD), sulfatide binding. On the procedure: as §2
Test [4] relates to platelet and leukocyte mixtures. As to the kind of experiment: Platelet-leukocyte aggregation assay (flow cytometry, CD42b on leukocytes). In kind it is cell-based, human. The conditions noted are these: ADP 30 μM, sulfatide liposomes. Here is the method:
Whole blood was collected as indicated above and centrifuged at 200 g to separate the blood from plasma and red blood cell fractions. Plasma and buffy coat layer were carefully removed and diluted 1:1 with PBS. The dilution was then layered onto a Ficoll Plus gradient and spun at 200 g for 20 min. The enriched platelet and leukocyte layer was removed, diluted with PBS, centrifuged and the pellet resuspended in Tyrode's Albumin buffer to a concentration of ˜3×10^5 platelets/μL and 3×10^3 leukocytes/μL. Isolated platelet-leukocyte mixtures were remained unactivated or activated with ADP (30 μM). Both unactivated and activated platelets were incubated for 10 min at 23° C. with liposomes (50 μg/mL) either without (liposomes control) or with sulfatides, and N-PTB constructs (1 μM). Reactions were fixed with 1% formalin and incubated with APC-labeled CD42b (Biolegend) and FITC-labeled CD45 (Biolegend) antibodies. Bound antibodies were quantified using a FacsAria flow cytometer.
Platelet P-selectin mediates platelet-leukocyte interactions through binding of leukocyte PSGL-1 (Merten 2005). […] Platelet binding of leukocytes was quantified through the fluorescence of allophycocyanin (APC) labeled anti-human CD42b (platelet marker) detected on leukocytes. The fluorescence was detected using flow cytometry analysis of platelet-leukocyte mixtures.

The subject of another test is Washed platelets. As to the kind of experiment: Platelet aggregation under flow assay (microfluidics channel). It counts as cell-based, human. The conditions noted are these: 10 μM, with sulfatide liposomes, shear rate 70 s^−1. On the procedure: as §1
Platelet aggregation is mediated by αIIbβ3 integrin interactions with fibrinogen and fibrin linking platelets together (Furie et al., J. Clin. Invest. 2005; 115 (12): 3355-3362; and Andrews et al., Thromb Res. 2004; 114:447-453). P-selectin links aggregated platelets together stabilizing clot formation (Merten 2001). Sulfatides stimulate increased levels of both αIIbβ3 integrin and P-selectin expression on platelets (Merten 2005). […]

B1: N-PTB: N-terminal phosphotyrosine binding domain (residues 1-241) of human Disabled-2 (Dab2), expressed as GST-fusion in E. coli (protein)
chain: MSNEVETSATNGQPDQQAAPKAPSKKEKKKGPEKTDEYLLARFKGDGVKYKAKLIGIDDVPDARGDKMSQDSMMKLKGMAARGRSQGQHKQRIWVNISLSGIKIIDEKTGVIEHEHPVNKISFIARDVTDNRAFGYVCGGEGQHQFFAIKTGQQAEPLVVDLKDLFQVIYNVKKKEEEKKKIEEASKAVENGSEALMILDDQTNKLKSGVDQMDLFGDMSTPPDLNSPTESKDILLVDLNS
For B1, the “effect on leukocyte adhesion and platelet-leukocyte aggregates under flow” value was “great reduction in observed leukocyte adhesion as well as platelet-leukocyte aggregates” in test [1]; “unable to affect the adhesion and aggregation of leukocytes” in test [1] (listed as N-PTB^4M). Besides, the concentration for half-maximal inhibition (IC50) in test [2] is about 2000 nM. Moreover, the Kd in test [3] was about 1930 nM. Further, the “inhibition of platelet-leukocyte binding” value in test [4] is “decreased platelet binding to leukocytes”; in test [4] (listed as N-PTB^4M), “no inhibition of platelet-leukocyte binding”. Further, the entries for the “inhibition of sulfatide induced platelet aggregation under flow” value with Washed platelets and in the test on Washed platelets (listed as N-PTB^4M) were “returned to the size of untreated platelets” and “limited inhibition of platelet aggregate size but not adhesion”, respectively.
